Data taken from the supplement of paper PMC10065799, “High-throughput profiling of sequence recognition by tyrosine kinases and SH2 domains using bacterial peptide display” (eLife, 2023).
Blank lines part the entries; values can stand above or below the sequence they belong to.

Columns and labels:
FGFR1 = FGFR1 (UniProt P11362); experiment: phosphorylation enrichment, bacterial display (enrichment ratio); higher = better substrate or ligand; peptides without Tyr show the background
FGFR3 = FGFR3 (UniProt P22607); experiment: as above
Sequence of FGFR3 (P22607 whole entry, looked up): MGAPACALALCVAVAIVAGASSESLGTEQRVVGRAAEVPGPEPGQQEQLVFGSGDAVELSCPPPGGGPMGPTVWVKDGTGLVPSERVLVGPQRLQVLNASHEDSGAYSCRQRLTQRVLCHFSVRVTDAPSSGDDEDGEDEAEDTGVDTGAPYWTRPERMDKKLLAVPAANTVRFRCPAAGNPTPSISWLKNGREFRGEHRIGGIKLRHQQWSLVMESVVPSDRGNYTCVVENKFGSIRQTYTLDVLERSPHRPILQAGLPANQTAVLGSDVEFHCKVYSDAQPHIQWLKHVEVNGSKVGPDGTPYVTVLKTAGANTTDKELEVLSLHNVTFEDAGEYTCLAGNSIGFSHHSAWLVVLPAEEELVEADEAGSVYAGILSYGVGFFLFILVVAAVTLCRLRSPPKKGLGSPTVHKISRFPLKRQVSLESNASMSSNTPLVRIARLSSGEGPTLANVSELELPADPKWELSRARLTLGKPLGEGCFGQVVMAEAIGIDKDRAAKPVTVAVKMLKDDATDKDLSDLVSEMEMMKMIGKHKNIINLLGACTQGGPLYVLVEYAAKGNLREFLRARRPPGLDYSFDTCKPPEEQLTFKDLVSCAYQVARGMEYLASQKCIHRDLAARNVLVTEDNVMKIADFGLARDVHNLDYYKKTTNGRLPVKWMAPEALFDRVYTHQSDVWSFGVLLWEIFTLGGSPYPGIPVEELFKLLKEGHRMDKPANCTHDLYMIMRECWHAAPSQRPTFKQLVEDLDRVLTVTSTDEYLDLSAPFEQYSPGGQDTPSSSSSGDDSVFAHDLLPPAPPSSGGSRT

EPHB1 = EPHB1 (UniProt P54762); experiment: as above
Sequence of EPHB1 (P54762 whole entry, looked up): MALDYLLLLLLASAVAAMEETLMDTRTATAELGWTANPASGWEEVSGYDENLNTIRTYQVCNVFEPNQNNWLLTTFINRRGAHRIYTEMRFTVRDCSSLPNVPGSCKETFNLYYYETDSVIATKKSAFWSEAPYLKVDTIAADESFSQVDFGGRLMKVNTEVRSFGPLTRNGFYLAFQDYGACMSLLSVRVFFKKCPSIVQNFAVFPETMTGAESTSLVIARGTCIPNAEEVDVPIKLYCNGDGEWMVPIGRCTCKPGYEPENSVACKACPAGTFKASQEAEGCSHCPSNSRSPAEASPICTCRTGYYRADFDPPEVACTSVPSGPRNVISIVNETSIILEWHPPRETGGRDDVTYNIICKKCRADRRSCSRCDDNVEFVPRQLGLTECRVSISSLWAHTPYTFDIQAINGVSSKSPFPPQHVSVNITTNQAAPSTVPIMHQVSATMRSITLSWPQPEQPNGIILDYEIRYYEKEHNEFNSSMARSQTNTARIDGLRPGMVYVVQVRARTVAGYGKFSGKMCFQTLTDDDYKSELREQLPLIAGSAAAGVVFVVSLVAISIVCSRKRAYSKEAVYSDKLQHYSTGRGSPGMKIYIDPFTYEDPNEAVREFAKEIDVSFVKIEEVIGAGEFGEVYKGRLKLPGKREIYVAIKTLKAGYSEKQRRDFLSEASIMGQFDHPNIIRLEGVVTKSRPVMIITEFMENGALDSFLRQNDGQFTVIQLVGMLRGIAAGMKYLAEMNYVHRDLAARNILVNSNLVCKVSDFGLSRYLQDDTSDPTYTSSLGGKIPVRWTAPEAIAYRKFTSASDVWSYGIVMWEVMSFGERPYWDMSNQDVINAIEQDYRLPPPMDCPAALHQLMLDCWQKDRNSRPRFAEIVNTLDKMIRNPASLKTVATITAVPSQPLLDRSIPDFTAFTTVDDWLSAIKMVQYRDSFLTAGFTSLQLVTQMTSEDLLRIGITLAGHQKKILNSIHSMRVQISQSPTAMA

c-Abl (mouse) = experiment: as above
Fer (mouse) = experiment: as above
MERTK = MERTK (UniProt Q12866); experiment: as above
Sequence of MERTK (Q12866 whole entry, looked up): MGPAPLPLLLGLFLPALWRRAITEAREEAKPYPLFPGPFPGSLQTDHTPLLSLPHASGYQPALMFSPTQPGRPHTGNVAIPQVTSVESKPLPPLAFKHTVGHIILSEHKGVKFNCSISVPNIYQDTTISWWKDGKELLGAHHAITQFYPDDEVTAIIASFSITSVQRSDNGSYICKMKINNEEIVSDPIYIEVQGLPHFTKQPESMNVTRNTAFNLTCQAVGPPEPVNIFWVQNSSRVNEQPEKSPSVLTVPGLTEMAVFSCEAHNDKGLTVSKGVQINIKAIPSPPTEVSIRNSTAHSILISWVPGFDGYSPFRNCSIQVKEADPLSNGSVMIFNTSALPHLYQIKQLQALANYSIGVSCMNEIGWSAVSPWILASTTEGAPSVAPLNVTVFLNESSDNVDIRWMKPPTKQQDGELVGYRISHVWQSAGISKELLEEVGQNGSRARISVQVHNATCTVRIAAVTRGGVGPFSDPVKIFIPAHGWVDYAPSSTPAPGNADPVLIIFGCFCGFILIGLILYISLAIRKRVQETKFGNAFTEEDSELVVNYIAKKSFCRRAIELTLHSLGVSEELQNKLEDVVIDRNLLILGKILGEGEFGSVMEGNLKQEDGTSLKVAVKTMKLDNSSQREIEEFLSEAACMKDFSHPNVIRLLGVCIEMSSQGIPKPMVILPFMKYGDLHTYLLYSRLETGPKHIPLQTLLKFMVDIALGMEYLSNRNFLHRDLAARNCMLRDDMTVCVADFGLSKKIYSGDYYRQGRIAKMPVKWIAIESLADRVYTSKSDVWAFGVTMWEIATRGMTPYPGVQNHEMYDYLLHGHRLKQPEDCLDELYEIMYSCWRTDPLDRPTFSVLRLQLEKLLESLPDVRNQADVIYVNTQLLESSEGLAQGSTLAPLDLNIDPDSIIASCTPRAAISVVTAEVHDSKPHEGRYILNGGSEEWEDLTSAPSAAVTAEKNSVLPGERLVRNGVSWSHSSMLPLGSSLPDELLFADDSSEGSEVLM

AncSZ = experiment: as above
Hck = Hck (UniProt P08631); experiment: as above
Sequence of Hck (P08631 whole entry, looked up): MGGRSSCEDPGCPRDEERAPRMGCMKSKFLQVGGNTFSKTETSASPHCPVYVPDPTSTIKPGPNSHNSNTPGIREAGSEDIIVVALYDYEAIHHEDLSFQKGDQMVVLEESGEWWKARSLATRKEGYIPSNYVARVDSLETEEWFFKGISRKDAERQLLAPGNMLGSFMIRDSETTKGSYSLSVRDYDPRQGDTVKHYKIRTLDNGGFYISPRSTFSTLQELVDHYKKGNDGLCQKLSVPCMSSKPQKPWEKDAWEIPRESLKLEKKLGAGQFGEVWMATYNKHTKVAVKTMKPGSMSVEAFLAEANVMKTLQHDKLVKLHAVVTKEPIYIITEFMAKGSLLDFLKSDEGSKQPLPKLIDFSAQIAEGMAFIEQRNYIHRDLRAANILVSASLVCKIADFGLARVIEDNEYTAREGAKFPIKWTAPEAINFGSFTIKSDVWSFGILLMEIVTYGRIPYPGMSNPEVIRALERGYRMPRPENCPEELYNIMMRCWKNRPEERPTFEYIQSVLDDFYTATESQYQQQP

EPHB2 = EPHB2 (UniProt P29323); experiment: as above
Sequence of EPHB2 (P29323 whole entry, looked up): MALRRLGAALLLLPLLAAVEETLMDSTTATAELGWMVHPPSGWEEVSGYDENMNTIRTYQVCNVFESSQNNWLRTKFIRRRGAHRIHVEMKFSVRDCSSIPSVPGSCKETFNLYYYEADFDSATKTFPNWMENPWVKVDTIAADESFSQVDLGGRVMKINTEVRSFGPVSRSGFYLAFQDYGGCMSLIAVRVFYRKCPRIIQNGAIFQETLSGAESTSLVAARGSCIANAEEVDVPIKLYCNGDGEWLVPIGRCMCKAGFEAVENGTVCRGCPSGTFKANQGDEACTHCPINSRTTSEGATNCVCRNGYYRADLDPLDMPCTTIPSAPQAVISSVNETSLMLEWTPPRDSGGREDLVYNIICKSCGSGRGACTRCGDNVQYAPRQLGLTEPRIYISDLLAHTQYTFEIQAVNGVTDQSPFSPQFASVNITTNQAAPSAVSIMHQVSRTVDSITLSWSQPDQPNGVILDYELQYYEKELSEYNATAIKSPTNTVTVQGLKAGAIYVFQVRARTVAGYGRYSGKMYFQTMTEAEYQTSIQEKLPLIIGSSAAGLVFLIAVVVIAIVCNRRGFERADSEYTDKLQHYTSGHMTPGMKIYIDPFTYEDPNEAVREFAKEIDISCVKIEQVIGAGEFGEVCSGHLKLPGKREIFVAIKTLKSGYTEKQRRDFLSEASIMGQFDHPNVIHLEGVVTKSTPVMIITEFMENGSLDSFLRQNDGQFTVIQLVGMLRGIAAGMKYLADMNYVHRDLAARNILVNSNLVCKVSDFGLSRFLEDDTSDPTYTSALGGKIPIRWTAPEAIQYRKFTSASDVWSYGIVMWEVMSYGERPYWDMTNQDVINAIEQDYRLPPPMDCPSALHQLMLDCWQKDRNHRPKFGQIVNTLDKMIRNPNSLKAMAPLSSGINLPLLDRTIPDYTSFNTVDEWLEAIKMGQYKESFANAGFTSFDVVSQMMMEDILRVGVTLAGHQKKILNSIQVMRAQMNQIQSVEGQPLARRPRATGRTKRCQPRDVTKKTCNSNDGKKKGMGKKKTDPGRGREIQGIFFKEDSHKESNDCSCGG

Fyn = Fyn (UniProt P06241); experiment: as above
Sequence of Fyn (P06241 whole entry, looked up): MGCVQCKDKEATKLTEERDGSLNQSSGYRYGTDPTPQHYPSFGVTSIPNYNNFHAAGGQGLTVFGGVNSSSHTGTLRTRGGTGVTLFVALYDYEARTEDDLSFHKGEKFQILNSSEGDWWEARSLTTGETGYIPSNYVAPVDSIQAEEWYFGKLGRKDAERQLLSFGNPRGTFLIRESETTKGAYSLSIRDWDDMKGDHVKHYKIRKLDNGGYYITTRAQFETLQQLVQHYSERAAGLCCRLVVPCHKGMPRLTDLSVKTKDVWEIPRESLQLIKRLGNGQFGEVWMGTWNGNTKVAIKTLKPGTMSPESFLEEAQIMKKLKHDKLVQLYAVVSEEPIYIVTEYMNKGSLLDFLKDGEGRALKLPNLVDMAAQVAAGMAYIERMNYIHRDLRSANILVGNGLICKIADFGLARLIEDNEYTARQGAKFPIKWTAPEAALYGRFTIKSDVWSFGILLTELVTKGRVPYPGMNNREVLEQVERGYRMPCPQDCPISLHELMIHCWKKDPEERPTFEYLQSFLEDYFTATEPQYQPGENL

c-Src = experiment: as above
Jak2 = Jak2 (UniProt O60674); experiment: as above
Fes = Fes (UniProt P07332); experiment: as above
Grb2 SH2 = Grb2 SH2 (UniProt P62993); experiment: SH2 binding enrichment of the phosphorylated peptide, bacterial display (enrichment ratio); higher = better substrate or ligand; peptides without Tyr show the background
c-Src SH2 = experiment: as above
SHP2-C SH2 = experiment: as above
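For SH2 binding enrichment of the phosphorylated peptide, bacterial display in this document: peptide library displayed on the E. coli surface as eCPX fusions, selected cells deep-sequenced, score is each peptide's frequency after selection divided by its frequency in the input.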
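For phosphorylation enrichment, bacterial display in this document: 11-residue human phosphosite peptides and single-mutation variants displayed on the E. coli surface, counted by deep sequencing, each peptide's frequency after selection divided by its frequency in the unselected input library; frequency after pTyr selection over input frequency; kinase dosed for 20-30% of maximal phosphorylation in three min.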

SH2 binding enrichment (Grb2 SH2): 0.87
SH2 binding enrichment (c-Src SH2): 0.513
SH2 binding enrichment (SHP2-C SH2): 0.494
Sequence: TRSFDYTEGGD [FGF7_Y58_M59T_YF]
phosphorylation enrichment (FGFR1): 0.52
phosphorylation enrichment (FGFR3): 0.625
phosphorylation enrichment (EPHB1): 0.569
phosphorylation enrichment (c-Abl (mouse)): 0.659
phosphorylation enrichment (Fer (mouse)): 0.572
phosphorylation enrichment (MERTK): 0.503
phosphorylation enrichment (AncSZ): 1.23
phosphorylation enrichment (Hck): 0.501
phosphorylation enrichment (EPHB2): 0.519
phosphorylation enrichment (Fyn): 0.513
phosphorylation enrichment (c-Src): 0.431
phosphorylation enrichment (Jak2): 0.975
phosphorylation enrichment (Fes): 1.19

SH2 binding enrichment (Grb2 SH2): 0.529
SH2 binding enrichment (c-Src SH2): 0.451
SH2 binding enrichment (SHP2-C SH2): 0.369
Sequence: VSYGEYRYRSV [CFTR_Y515_D513G]
phosphorylation enrichment (FGFR1): 0.505
phosphorylation enrichment (FGFR3): 0.469
phosphorylation enrichment (EPHB1): 0.452
phosphorylation enrichment (c-Abl (mouse)): 0.605
phosphorylation enrichment (Fer (mouse)): 0.442
phosphorylation enrichment (MERTK): 0.363
phosphorylation enrichment (AncSZ): 0.688
phosphorylation enrichment (Hck): 2.04
phosphorylation enrichment (EPHB2): 0.416
phosphorylation enrichment (Fyn): 5.66
phosphorylation enrichment (c-Src): 3.22
phosphorylation enrichment (Jak2): 0.612
phosphorylation enrichment (Fes): 0.824

SH2 binding enrichment (Grb2 SH2): 0.852
SH2 binding enrichment (c-Src SH2): 2.79
SH2 binding enrichment (SHP2-C SH2): 0.956
Sequence: MAYDRYAAICS [OR8H2_Y123_H120Y]
phosphorylation enrichment (FGFR1): 0.526
phosphorylation enrichment (FGFR3): 0.687
phosphorylation enrichment (EPHB1): 0.699
phosphorylation enrichment (c-Abl (mouse)): 0.839
phosphorylation enrichment (Fer (mouse)): 0.597
phosphorylation enrichment (MERTK): 0.835
phosphorylation enrichment (AncSZ): 0.94
phosphorylation enrichment (Hck): 0.76
phosphorylation enrichment (EPHB2): 0.828
phosphorylation enrichment (Fyn): 0.526
phosphorylation enrichment (c-Src): 0.661
phosphorylation enrichment (Jak2): 1.04
phosphorylation enrichment (Fes): 1.35

SH2 binding enrichment (Grb2 SH2): 1.43
SH2 binding enrichment (c-Src SH2): 1.15
SH2 binding enrichment (SHP2-C SH2): 1.37
Sequence: RDLTDYLMKIL [ACTA1_Y190]
phosphorylation enrichment (FGFR1): 0.539
phosphorylation enrichment (FGFR3): 0.896
phosphorylation enrichment (EPHB1): 0.58
phosphorylation enrichment (c-Abl (mouse)): 0.791
phosphorylation enrichment (Fer (mouse)): 0.581
phosphorylation enrichment (MERTK): 0.477
phosphorylation enrichment (AncSZ): 1.09
phosphorylation enrichment (Hck): 0.551
phosphorylation enrichment (EPHB2): 0.529
phosphorylation enrichment (Fyn): 0.554
phosphorylation enrichment (c-Src): 0.613
phosphorylation enrichment (Jak2): 1.16
phosphorylation enrichment (Fes): 1.21

The remaining lines, values behind:

Sequence: FSLIHYASIVD [MYH7_Y582_G584S]
phosphorylation enrichment (FGFR1): 0.479
phosphorylation enrichment (FGFR3): 1.01
phosphorylation enrichment (EPHB1): 0.83
phosphorylation enrichment (c-Abl (mouse)): 0.847
phosphorylation enrichment (Fer (mouse)): 0.714
phosphorylation enrichment (MERTK): 0.475
phosphorylation enrichment (AncSZ): 1.07
phosphorylation enrichment (Hck): 0.575
phosphorylation enrichment (EPHB2): 0.692
phosphorylation enrichment (Fyn): 0.488
phosphorylation enrichment (c-Src): 0.442
phosphorylation enrichment (Jak2): 1.13
phosphorylation enrichment (Fes): 1.29
SH2 binding enrichment (Grb2 SH2): 1.08
SH2 binding enrichment (c-Src SH2): 7.83
SH2 binding enrichment (SHP2-C SH2): 37.2

Sequence: GTSLIYWTLFT [G6PC3_Y214]
phosphorylation enrichment (FGFR1): 5.01
phosphorylation enrichment (FGFR3): 4.45
phosphorylation enrichment (EPHB1): 3.96
phosphorylation enrichment (c-Abl (mouse)): 11.2
phosphorylation enrichment (Fer (mouse)): 1.68
phosphorylation enrichment (MERTK): 5.81
phosphorylation enrichment (AncSZ): 1.82
phosphorylation enrichment (Hck): 6.02
phosphorylation enrichment (EPHB2): 2.09
phosphorylation enrichment (Fyn): 8.42
phosphorylation enrichment (c-Src): 6.99
phosphorylation enrichment (Jak2): 3
phosphorylation enrichment (Fes): 1.97
SH2 binding enrichment (Grb2 SH2): 0.746
SH2 binding enrichment (c-Src SH2): 0.457
SH2 binding enrichment (SHP2-C SH2): 0.652

Sequence: RHTRSYDFTEG [FGF7_Y56_M59T_YF]
phosphorylation enrichment (FGFR1): 0.411
phosphorylation enrichment (FGFR3): 0.382
phosphorylation enrichment (EPHB1): 0.377
phosphorylation enrichment (c-Abl (mouse)): 0.563
phosphorylation enrichment (Fer (mouse)): 0.399
phosphorylation enrichment (MERTK): 0.35
phosphorylation enrichment (AncSZ): 0.557
phosphorylation enrichment (Hck): 0.387
phosphorylation enrichment (EPHB2): 0.492
phosphorylation enrichment (Fyn): 0.366
phosphorylation enrichment (c-Src): 0.351
phosphorylation enrichment (Jak2): 0.444
phosphorylation enrichment (Fes): 0.695
SH2 binding enrichment (Grb2 SH2): 0.88
SH2 binding enrichment (c-Src SH2): 0.427
SH2 binding enrichment (SHP2-C SH2): 0.611

Sequence: AASTDYYKRGD [PDHA1_Y242]
phosphorylation enrichment (FGFR1): 0.592
phosphorylation enrichment (FGFR3): 0.586
phosphorylation enrichment (EPHB1): 0.51
phosphorylation enrichment (c-Abl (mouse)): 0.615
phosphorylation enrichment (Fer (mouse)): 0.515
phosphorylation enrichment (MERTK): 0.511
phosphorylation enrichment (AncSZ): 0.83
phosphorylation enrichment (Hck): 0.568
phosphorylation enrichment (EPHB2): 0.45
phosphorylation enrichment (Fyn): 0.597
phosphorylation enrichment (c-Src): 0.523
phosphorylation enrichment (Jak2): 0.811
phosphorylation enrichment (Fes): 0.811
SH2 binding enrichment (Grb2 SH2): 0.824
SH2 binding enrichment (c-Src SH2): 0.4
SH2 binding enrichment (SHP2-C SH2): 0.593
